Assay [1] addresses NM (N-terminal and middle region of Sup35p), soluble / unpolymerized (Saccharomyces cerevisiae) (UniProt P05453). As to the kind of experiment: cell-based or functional assay.
Assay [2] addresses biotinylated NM^K184C seed (Saccharomyces cerevisiae) (UniProt P05453). As to the kind of experiment: capture of biotinylated seed on Streptavidin-coated Dynabeads, SDS wash, scintillation counting.

Sequence of NM (N-terminal and middle region of Sup35p), soluble / unpolymerized (Saccharomyces cerevisiae) (P05453 1-253): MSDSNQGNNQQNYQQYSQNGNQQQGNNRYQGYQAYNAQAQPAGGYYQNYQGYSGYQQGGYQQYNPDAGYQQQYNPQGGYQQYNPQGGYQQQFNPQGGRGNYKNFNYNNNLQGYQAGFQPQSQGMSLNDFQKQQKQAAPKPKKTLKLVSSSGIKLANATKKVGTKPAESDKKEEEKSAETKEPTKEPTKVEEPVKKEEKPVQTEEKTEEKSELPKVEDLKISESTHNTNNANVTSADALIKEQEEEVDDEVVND
Sequence of biotinylated NM^K184C seed (Saccharomyces cerevisiae) (P05453 1-253 K184C): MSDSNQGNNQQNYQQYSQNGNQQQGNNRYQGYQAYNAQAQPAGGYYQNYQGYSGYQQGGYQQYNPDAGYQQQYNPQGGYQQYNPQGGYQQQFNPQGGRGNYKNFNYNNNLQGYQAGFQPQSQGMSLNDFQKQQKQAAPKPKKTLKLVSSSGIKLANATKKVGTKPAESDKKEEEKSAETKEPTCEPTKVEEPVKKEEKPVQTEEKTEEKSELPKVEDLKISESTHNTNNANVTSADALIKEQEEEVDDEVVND

In assay [1], “Hsp104 (from UniProt P31539 1-908) (enzyme)” returned an IC50 of inhibition of NM fibrillization, no nucleotide of 7.6 µM; an IC50 of inhibition of NM fibrillization, with ADP of 3.1 µM; an IC50 of inhibition of NM fibrillization, with AMP-PNP of 0.2 µM; an IC50 of inhibition of NM fibrillization, with ATP hydrolysis of 0.1 µM.

The substance “NM^T158C-iodo[1-^14C]acetamide (soluble) (from UniProt P05453 1-253)” displayed a fraction of seed-bound NM soluble in SDS in assay [2] of 50%.

The record behind these values is US20060105320A1.
